Read-outs that look alike come from different tables or passages of the source.
B1: ABD-ROD of S. pombe α-actinin (domain or fragment, Schizosaccharomyces pombe, UniProt O13728 1-483, looked up)
chain: MQANQWQSVQNRTFTKWFNTKLSSRDLPSVFDLRKDLSDGILLIQLLEIIGDENLGRYNRNPRMRVHRLENVNKALEYIKSKGMPLTNIGPADIVDGNLKLILGLIWTLILRFTIADINEEGLTAKEGLLLWCQRKTANYHPEVDVQDFTRSWTNGLAFCALIHQHRPDLLDYNKLDKKNHRANMQLAFDIAQKSIGIPRLIEVEDVCDVDRPDERSIMTYVAEYFHAFSTLDKVETAARRVERFTEVLMSTHDMKIDYESRMKRLLGSIARMQEYWHTVQFENNYTDVKSHSNNFAKFKATEKREWVKEKIDLESLLGTIQTNLKTYQLRKYEPPAGLKIVDLERQWKDFLSEEANQSKLINTHMREIKESMRIAFADRANSFSKMLSTISNEITNLQGDWRDQLDHVEFLQEHLGPLEVELASVKVLYDNCFQAGIEENDYTMFSYEDLEHEFGITANIIANKIKYLENELLEREKRTLSK
notes: 485 residues in all; also called pTEV-SP-ABD-ROD; source: E. coli BL21(DE3), purified (nickel chelating column, TEV cleavage, ion exchange when necessary); not shown: 10xHis, N-terminal, cleaved
B2: rod domain (ROD) of S. pombe α-actinin (domain or fragment, Schizosaccharomyces pombe, UniProt O13728 228-483, looked up)
chain: AFSTLDKVETAARRVERFTEVLMSTHDMKIDYESRMKRLLGSIARMQEYWHTVQFENNYTDVKSHSNNFAKFKATEKREWVKEKIDLESLLGTIQTNLKTYQLRKYEPPAGLKIVDLERQWKDFLSEEANQSKLINTHMREIKESMRIAFADRANSFSKMLSTISNEITNLQGDWRDQLDHVEFLQEHLGPLEVELASVKVLYDNCFQAGIEENDYTMFSYEDLEHEFGITANIIANKIKYLENELLEREKRTLSK
notes: alpha-actinin of Schizosaccharomyces pombe, rod domain with two putative spectrin repeats, nucleotides 682-1449, residues 228-483; 258 residues in all; also called pTEV-SP-ROD; source: E. coli BL21(DE3), purified (nickel chelating column, TEV cleavage, ion exchange when necessary); not shown: 10xHis, N-terminal, cleaved
B3: full-length S. pombe α-actinin (natural protein, Schizosaccharomyces pombe, UniProt O13728 1-621, looked up)
chain: MQANQWQSVQNRTFTKWFNTKLSSRDLPSVFDLRKDLSDGILLIQLLEIIGDENLGRYNRNPRMRVHRLENVNKALEYIKSKGMPLTNIGPADIVDGNLKLILGLIWTLILRFTIADINEEGLTAKEGLLLWCQRKTANYHPEVDVQDFTRSWTNGLAFCALIHQHRPDLLDYNKLDKKNHRANMQLAFDIAQKSIGIPRLIEVEDVCDVDRPDERSIMTYVAEYFHAFSTLDKVETAARRVERFTEVLMSTHDMKIDYESRMKRLLGSIARMQEYWHTVQFENNYTDVKSHSNNFAKFKATEKREWVKEKIDLESLLGTIQTNLKTYQLRKYEPPAGLKIVDLERQWKDFLSEEANQSKLINTHMREIKESMRIAFADRANSFSKMLSTISNEITNLQGDWRDQLDHVEFLQEHLGPLEVELASVKVLYDNCFQAGIEENDYTMFSYEDLEHEFGITANIIANKIKYLENELLEREKRTLSKQELDGITKVFRHFEKKKSNMLNEVEFYAALASLGLVYDTEEGTALFHRAANSEEGVTYERFTEIVMEELEDRDSARQVLYAFCDVADGKSYVTSDDLLRSQVRPNIVKFLECNMNKHSEGLDYLTWIKQLLAEDKEIV
notes: also called full length α-actinin; pTEV-SP; source: E. coli BL21(DE3), purified (nickel chelating column, TEV cleavage, ion exchange when necessary); not shown: 10xHis, N-terminal, cleaved
B4: ROD-EF of S. pombe α-actinin (domain or fragment, Schizosaccharomyces pombe, UniProt O13728 228-621, looked up)
chain: AFSTLDKVETAARRVERFTEVLMSTHDMKIDYESRMKRLLGSIARMQEYWHTVQFENNYTDVKSHSNNFAKFKATEKREWVKEKIDLESLLGTIQTNLKTYQLRKYEPPAGLKIVDLERQWKDFLSEEANQSKLINTHMREIKESMRIAFADRANSFSKMLSTISNEITNLQGDWRDQLDHVEFLQEHLGPLEVELASVKVLYDNCFQAGIEENDYTMFSYEDLEHEFGITANIIANKIKYLENELLEREKRTLSKQELDGITKVFRHFEKKKSNMLNEVEFYAALASLGLVYDTEEGTALFHRAANSEEGVTYERFTEIVMEELEDRDSARQVLYAFCDVADGKSYVTSDDLLRSQVRPNIVKFLECNMNKHSEGLDYLTWIKQLLAEDKEIV
notes: 396 residues in all; also called pTEV-SP-ROD-EF; source: E. coli BL21(DE3), purified (nickel chelating column, TEV cleavage, ion exchange when necessary); not shown: 10xHis, N-terminal, cleaved

Columns and labels:
[1] = target: the molecule itself; test: SEC; gel filtration on Superdex 200 10/300GL in 50 mM Tris-HCl, pH 7.6, 200 mM KCl (also Sephacryl S-400HR in 25 mM sodium phosphate, pH 7.6, 150 mM NaCl); elution compared with reference proteins; dimer formation judged from apparent size
[2] = target: the molecule itself; test: as above; remark: listed apart in the source

| Protein | binding result [1] | binding result [2] |
| --- | --- | --- |
| B1 | binds | – |
| B2 | binds | – |
| B3 | – | binds |
| B4 | binds | – |
